Laboratory results reported in patent publication US20240409645A1 (DUALYX, published 2024).
Like-named read-outs stand apart in the source and are kept apart here. One block for each binder: values may come before it.

What was measured:
[1] = molecular target: T1, human IL-2 receptor (IL-2Rα/IL-2Rβ/γc) (human, UniProt P01589 22-272; P14784 27-551; P31785 23-369); assay: cell-based or functional assay
T1 sequence 1: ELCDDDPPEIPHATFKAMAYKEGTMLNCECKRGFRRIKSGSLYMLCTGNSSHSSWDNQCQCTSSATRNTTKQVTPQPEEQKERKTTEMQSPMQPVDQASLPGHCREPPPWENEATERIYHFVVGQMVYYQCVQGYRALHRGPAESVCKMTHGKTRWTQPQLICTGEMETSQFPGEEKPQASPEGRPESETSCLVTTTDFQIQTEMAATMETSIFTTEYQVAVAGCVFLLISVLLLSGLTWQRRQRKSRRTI
T1 sequence 2: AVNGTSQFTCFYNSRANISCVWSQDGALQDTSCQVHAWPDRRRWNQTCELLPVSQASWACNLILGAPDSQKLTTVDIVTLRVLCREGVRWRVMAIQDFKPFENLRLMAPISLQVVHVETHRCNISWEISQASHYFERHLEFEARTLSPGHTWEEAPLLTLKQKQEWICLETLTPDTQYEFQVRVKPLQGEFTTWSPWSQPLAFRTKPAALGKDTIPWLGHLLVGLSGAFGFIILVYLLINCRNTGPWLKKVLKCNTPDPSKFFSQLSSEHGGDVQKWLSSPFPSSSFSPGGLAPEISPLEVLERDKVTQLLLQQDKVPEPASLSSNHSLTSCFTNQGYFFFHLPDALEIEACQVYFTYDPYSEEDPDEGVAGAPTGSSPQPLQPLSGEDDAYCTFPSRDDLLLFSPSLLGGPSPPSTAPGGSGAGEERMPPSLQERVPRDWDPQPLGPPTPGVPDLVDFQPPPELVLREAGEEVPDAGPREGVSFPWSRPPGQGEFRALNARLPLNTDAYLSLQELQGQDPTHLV
T1 sequence 3: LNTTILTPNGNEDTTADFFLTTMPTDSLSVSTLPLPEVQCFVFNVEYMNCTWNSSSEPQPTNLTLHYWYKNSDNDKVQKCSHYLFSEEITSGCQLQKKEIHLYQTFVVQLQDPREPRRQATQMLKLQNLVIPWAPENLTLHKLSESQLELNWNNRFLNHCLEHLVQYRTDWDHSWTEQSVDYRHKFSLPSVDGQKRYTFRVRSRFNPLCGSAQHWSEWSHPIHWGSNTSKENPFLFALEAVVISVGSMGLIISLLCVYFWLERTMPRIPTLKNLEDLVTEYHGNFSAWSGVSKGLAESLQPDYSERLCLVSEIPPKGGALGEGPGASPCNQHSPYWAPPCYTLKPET

[2] = molecular target: T1, human IL-2 receptor (IL-2Rα/IL-2Rβ/γc); assay: cell-based or functional assay; remark: listed apart in the source

EC50 (nM) pSTAT5, NK, human PBMCs [1]: 0.0812 nM
EC50 (nM) pSTAT5, Treg, human PBMCs [1]: 0.00403 nM
Fold Max signal (% pSTAT5+) Treg/NK [1]: 8 fold
Max signal (% pSTAT5+), NK [1]: 9 % pSTAT5+
Max signal (% pSTAT5+), Treg [1]: 79 % pSTAT5+
fold EC50 NK/Treg [1]: 20 fold
B1: DC00052 (other)
chain 1: QVQLVESGGGLVQPGGSLRLSCATSGFTFRNNFMSWVRQAPGKGLEWVSTISYGGESTTYAESVKGRFTISRDNAKNTLYLQMNNLKPEDTAVYYCAKATSYDSIRSGSRGQGTQVTVSSGGGGSGGGGSGGGGSQVQLVESGGGLVQPGGSLRLSCATSGFTFRNNFMSWVRQAPGKGLEWVSTISYGGESTTYAESVKGRFTISRDNAKNTLYLQMNNLKPEDTAVYYCAKATSYDSIRSGSRGQGTQVTVSSDKTHTCPPCPAPEAAGGPSVFLFPPKPKDTLMISRTPEVTCVVVDVSHEDPEVKFNWYVDGVEVHNAKTKPREEQYNSTYRVVSVLTVLHQDWLNGKEYKCKVSNKALGAPIEKTISKAKGQPREPQVYTLPPSRDELTKNQVSLTCLVKGFYPSDIAVEWESNGQPENNYKTTPPVLDSDGSFLLYSKLTVDKSRWQQGNVFSCSVMHEALHNHYTQKSLSLSPGK
chain 2: QVQLVESGGGLVQAGGSLTLSCAAPGRTFGTDVVGWFRQAPGKEREFVASISRSGDGIYYDDSVKGRFTISRNNAWNTVNLQMNSLKVEDTAVYYCAAGDGWSTYDYWGQGTQVTVSSGGGGSGGGGSGGGGSQVQLVESGGGLVQPGGSLRLSCATSGFTFRNNFMSWVRQAPGKGLEWVSTISYGGESTTYAESVKGRFTISRDNAKNTLYLQMNNLKPEDTAVYYCAKATSYDSIRSGSRGQGTQVTVSSGGGGSGGGGSGGGGSEVQLVESGGGLVQTGGSLRLSCAASGGTFSRDAMAWFRQVPGKEREFVALISWSGATTNYADSVKGRFAISRDNGKNTVYLQMNRLKPADTAIYYCAADRRPMGSRSYFEPTEYDDWGQGTQVTVSSGGGGSGGGGSGGGGSDKTHTCPPCPAPEAAGGPSVFLFPPKPKDTLMISRTPEVTCVVVDVSHEDPEVKFNWYVDGVEVHNAKTKPREEQYNSTYRVVSVLTVLHQDWLNGKEYKCKVSNKALGAPIEKTISKAKGQPREPQVYTLPPSRDELTKNQVSLTCLVKGFYPSDIAVEWESNGQPENNYKTTPPVLDSDGSFFLYSRLTVDKSRWQQGNVFSCSVMHEALHNHYTQKSLSLSPGK

EC50 (nM) pSTAT5, NK, human PBMCs [2]: 0.0032 nM
EC50 (nM) pSTAT5, Treg, human PBMCs [2]: < 0.1 pM
Fold Max signal (% pSTAT5+) Treg/NK [2]: 12 fold
Max signal (% pSTAT5+), NK [2]: 4.31 % pSTAT5+
Max signal (% pSTAT5+), Treg [2]: 53.1 % pSTAT5+
fold EC50 NK/Treg [2]: > 32 fold
B2: DC00075 (other)
chain 1: QVQLVESGGGLVQAGGSLRLSCAASGIPFDNYAMGWFRQAPGKEREFVAARDLEGIITRYGDSVKGRFTISRGNAKNTVFLQMNSLKPEDTAVYYCAARDGGVVAGSRSSAQYNYWGQGTQVTVSSDKTHTCPPCPAPEAAGGPSVFLFPPKPKDTLMISRTPEVTCVVVDVSHEDPEVKFNWYVDGVEVHNAKTKPREEQYNSTYRVVSVLTVLHQDWLNGKEYKCKVSNKALGAPIEKTISKAKGQPREPQVYTLPPSRDELTKNQVSLTCLVKGFYPSDIAVEWESNGQPENNYKTTPPVLDSDGSFLLYSKLTVDKSRWQQGNVFSCSVMHEALHNHYTQKSLSLSPGK
chain 2: EVQLVESGGGLVQTGGSLRLSCAASGGTFSRDAMAWFRQVPGKEREFVALISWSGATTNYADSVKGRFAISRDNGKNTVYLQMNRLKPADTAIYYCAADRRPMGSRSYFEPTEYDDWGQGTQVTVSSGGGGSGGGGSGGGGSQVQLVESGGGLVQPGGSLRLSCATSGFTFRNNFMSWVRQAPGKGLEWVSTISYGGESTTYAESVKGRFTISRDNAKNTLYLQMNNLKPEDTAVYYCAKATSYDSIRSGSRGQGTQVTVSSGGGGSGGGGSGGGGSQVQLVESGGGLVQAGGSLTLSCAAPGRTFGTDVVGWFRQAPGKEREFVASISRSGDGIYYDDSVKGRFTISRNNAWNTVNLQMNSLKVEDTAVYYCAAGDGWSTYDYWGQGTQVTVSSGGGGSGGGGSGGGGSDKTHTCPPCPAPEAAGGPSVFLFPPKPKDTLMISRTPEVTCVVVDVSHEDPEVKFNWYVDGVEVHNAKTKPREEQYNSTYRVVSVLTVLHQDWLNGKEYKCKVSNKALGAPIEKTISKAKGQPREPQVYTLPPSRDELTKNQVSLTCLVKGFYPSDIAVEWESNGQPENNYKTTPPVLDSDGSFFLYSRLTVDKSRWQQGNVFSCSVMHEALHNHYTQKSLSLSPGK

EC50 (nM) pSTAT5, NK, human PBMCs [2]: 0.191 pM
EC50 (nM) pSTAT5, Treg, human PBMCs [2]: < 0.1 pM
Fold Max signal (% pSTAT5+) Treg/NK [2]: 7 fold
Max signal (% pSTAT5+), NK [2]: 7.96 % pSTAT5+
Max signal (% pSTAT5+), Treg [2]: 58.4 % pSTAT5+
fold EC50 NK/Treg [2]: > 1.91 fold
B3: DC00077 (other)
chain 1: B2 chain 1
chain 2: QVQLVESGGGLVQPGGSLRLSCATSGFTFRNNFMSWVRQAPGKGLEWVSTISYGGESTTYAESVKGRFTISRDNAKNTLYLQMNNLKPEDTAVYYCAKATSYDSIRSGSRGQGTQVTVSSGGGGSGGGGSGGGGSEVQLVESGGGLVQTGGSLRLSCAASGGTFSRDAMAWFRQVPGKEREFVALISWSGATTNYADSVKGRFAISRDNGKNTVYLQMNRLKPADTAIYYCAADRRPMGSRSYFEPTEYDDWGQGTQVTVSSGGGGSGGGGSGGGGSQVQLVESGGGLVQAGGSLTLSCAAPGRTFGTDVVGWFRQAPGKEREFVASISRSGDGIYYDDSVKGRFTISRNNAWNTVNLQMNSLKVEDTAVYYCAAGDGWSTYDYWGQGTQVTVSSGGGGSGGGGSGGGGSDKTHTCPPCPAPEAAGGPSVFLFPPKPKDTLMISRTPEVTCVVVDVSHEDPEVKFNWYVDGVEVHNAKTKPREEQYNSTYRVVSVLTVLHQDWLNGKEYKCKVSNKALGAPIEKTISKAKGQPREPQVYTLPPSRDELTKNQVSLTCLVKGFYPSDIAVEWESNGQPENNYKTTPPVLDSDGSFFLYSRLTVDKSRWQQGNVFSCSVMHEALHNHYTQKSLSLSPGK

EC50 (nM) pSTAT5, NK, human PBMCs [2]: 0.195 nM
EC50 (nM) pSTAT5, Treg, human PBMCs [2]: < 0.1 pM
Fold Max signal (% pSTAT5+) Treg/NK [2]: 5 fold
Max signal (% pSTAT5+), NK [2]: 14.1 % pSTAT5+
Max signal (% pSTAT5+), Treg [2]: 67.8 % pSTAT5+
fold EC50 NK/Treg [2]: > 1950 fold
B4: DC00078 (other)
chain 1: B2 chain 1
chain 2: QVQLVESGGGLVQAGGSLTLSCAAPGRTFGTDVVGWFRQAPGKEREFVASISRSGDGIYYDDSVKGRFTISRNNAWNTVNLQMNSLKVEDTAVYYCAAGDGWSTYDYWGQGTQVTVSSGGGGSGGGGSGGGGSEVQLVESGGGLVQTGGSLRLSCAASGGTFSRDAMAWFRQVPGKEREFVALISWSGATTNYADSVKGRFAISRDNGKNTVYLQMNRLKPADTAIYYCAADRRPMGSRSYFEPTEYDDWGQGTQVTVSSGGGGSGGGGSGGGGSQVQLVESGGGLVQPGGSLRLSCATSGFTFRNNFMSWVRQAPGKGLEWVSTISYGGESTTYAESVKGRFTISRDNAKNTLYLQMNNLKPEDTAVYYCAKATSYDSIRSGSRGQGTQVTVSSDKTHTCPPCPAPEAAGGPSVFLFPPKPKDTLMISRTPEVTCVVVDVSHEDPEVKFNWYVDGVEVHNAKTKPREEQYNSTYRVVSVLTVLHQDWLNGKEYKCKVSNKALGAPIEKTISKAKGQPREPQVYTLPPSRDELTKNQVSLTCLVKGFYPSDIAVEWESNGQPENNYKTTPPVLDSDGSFFLYSRLTVDKSRWQQGNVFSCSVMHEALHNHYTQKSLSLSPGK

EC50 (nM) pSTAT5, NK, human PBMCs [2]: 2.42 nM
EC50 (nM) pSTAT5, Treg, human PBMCs [2]: < 0.1 pM
Fold Max signal (% pSTAT5+) Treg/NK [2]: 4 fold
Max signal (% pSTAT5+), NK [2]: 14 % pSTAT5+
Max signal (% pSTAT5+), Treg [2]: 59.4 % pSTAT5+
fold EC50 NK/Treg [2]: > 24200 fold
B5: DC00076 (other)
chain 1: B2 chain 1
chain 2: QVQLVESGGGLVQPGGSLRLSCATSGFTFRNNFMSWVRQAPGKGLEWVSTISYGGESTTYAESVKGRFTISRDNAKNTLYLQMNNLKPEDTAVYYCAKATSYDSIRSGSRGQGTQVTVSSGGGGSGGGGSGGGGSQVQLVESGGGLVQAGGSLTLSCAAPGRTFGTDVVGWFRQAPGKEREFVASISRSGDGIYYDDSVKGRFTISRNNAWNTVNLQMNSLKVEDTAVYYCAAGDGWSTYDYWGQGTQVTVSSGGGGSGGGGSGGGGSEVQLVESGGGLVQTGGSLRLSCAASGGTFSRDAMAWFRQVPGKEREFVALISWSGATTNYADSVKGRFAISRDNGKNTVYLQMNRLKPADTAIYYCAADRRPMGSRSYFEPTEYDDWGQGTQVTVSSGGGGSGGGGSGGGGSDKTHTCPPCPAPEAAGGPSVFLFPPKPKDTLMISRTPEVTCVVVDVSHEDPEVKFNWYVDGVEVHNAKTKPREEQYNSTYRVVSVLTVLHQDWLNGKEYKCKVSNKALGAPIEKTISKAKGQPREPQVYTLPPSRDELTKNQVSLTCLVKGFYPSDIAVEWESNGQPENNYKTTPPVLDSDGSFFLYSRLTVDKSRWQQGNVFSCSVMHEALHNHYTQKSLSLSPGK
